Results taken from patent publication US20220332804A1 (CSL INNOVATION, published 2022).

What was measured:
Experiment in all cases: SPR, KD relative to WT C2;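 note: biacore SPR at 37 °C, anti-C2 mAbs captured via immobilised goat anti-human IgG, C2 alanine or serine surface mutants as analytes, 1:1 model fitted, double-referenced sensograms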
human C2 D431A = biological target: T1, human C2 D431A (human, UniProt P06681 21-752)
T1 sequence: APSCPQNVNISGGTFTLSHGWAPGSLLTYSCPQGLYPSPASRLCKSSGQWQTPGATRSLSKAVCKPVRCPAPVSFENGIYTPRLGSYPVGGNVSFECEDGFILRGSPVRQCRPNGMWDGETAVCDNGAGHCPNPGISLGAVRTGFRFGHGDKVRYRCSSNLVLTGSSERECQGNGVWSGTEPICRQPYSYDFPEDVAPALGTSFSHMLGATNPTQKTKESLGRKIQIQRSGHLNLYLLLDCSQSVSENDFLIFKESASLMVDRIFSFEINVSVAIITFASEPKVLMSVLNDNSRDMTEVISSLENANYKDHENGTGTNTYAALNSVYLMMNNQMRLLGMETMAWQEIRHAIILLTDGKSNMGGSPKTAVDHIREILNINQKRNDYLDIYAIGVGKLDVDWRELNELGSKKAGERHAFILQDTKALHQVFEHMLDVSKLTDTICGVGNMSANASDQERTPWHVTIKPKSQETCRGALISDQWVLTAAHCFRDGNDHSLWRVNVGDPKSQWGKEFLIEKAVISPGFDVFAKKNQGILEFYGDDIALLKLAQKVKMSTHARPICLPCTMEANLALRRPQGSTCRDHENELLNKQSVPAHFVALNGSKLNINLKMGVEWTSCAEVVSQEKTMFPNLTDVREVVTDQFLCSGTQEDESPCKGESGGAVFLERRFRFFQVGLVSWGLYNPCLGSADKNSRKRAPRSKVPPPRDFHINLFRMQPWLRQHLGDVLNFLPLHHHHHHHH

human C2 L453A = biological target: T2, human C2 L453A (human, UniProt P06681 21-752)
T2 sequence: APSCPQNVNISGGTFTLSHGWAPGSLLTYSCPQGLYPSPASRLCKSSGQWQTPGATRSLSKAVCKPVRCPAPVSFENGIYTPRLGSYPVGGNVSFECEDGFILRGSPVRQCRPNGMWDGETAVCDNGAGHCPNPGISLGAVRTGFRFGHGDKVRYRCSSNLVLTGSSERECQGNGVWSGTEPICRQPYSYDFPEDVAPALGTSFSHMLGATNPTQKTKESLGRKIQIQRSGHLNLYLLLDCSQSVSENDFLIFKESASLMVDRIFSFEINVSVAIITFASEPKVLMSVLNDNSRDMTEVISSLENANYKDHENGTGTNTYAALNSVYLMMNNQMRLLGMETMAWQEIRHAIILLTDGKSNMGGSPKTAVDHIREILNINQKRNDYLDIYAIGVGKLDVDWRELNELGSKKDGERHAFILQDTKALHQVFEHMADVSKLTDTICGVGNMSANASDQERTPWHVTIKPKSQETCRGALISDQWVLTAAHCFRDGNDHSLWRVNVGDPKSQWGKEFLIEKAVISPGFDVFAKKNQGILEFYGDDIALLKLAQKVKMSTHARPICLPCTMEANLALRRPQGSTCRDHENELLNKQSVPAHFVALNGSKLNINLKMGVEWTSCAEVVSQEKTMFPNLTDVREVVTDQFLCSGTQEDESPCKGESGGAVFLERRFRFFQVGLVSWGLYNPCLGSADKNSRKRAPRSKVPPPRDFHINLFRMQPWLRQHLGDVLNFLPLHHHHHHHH

human C2 N471A = biological target: T3, human C2 N471A (human, UniProt P06681 21-752)
T3 sequence: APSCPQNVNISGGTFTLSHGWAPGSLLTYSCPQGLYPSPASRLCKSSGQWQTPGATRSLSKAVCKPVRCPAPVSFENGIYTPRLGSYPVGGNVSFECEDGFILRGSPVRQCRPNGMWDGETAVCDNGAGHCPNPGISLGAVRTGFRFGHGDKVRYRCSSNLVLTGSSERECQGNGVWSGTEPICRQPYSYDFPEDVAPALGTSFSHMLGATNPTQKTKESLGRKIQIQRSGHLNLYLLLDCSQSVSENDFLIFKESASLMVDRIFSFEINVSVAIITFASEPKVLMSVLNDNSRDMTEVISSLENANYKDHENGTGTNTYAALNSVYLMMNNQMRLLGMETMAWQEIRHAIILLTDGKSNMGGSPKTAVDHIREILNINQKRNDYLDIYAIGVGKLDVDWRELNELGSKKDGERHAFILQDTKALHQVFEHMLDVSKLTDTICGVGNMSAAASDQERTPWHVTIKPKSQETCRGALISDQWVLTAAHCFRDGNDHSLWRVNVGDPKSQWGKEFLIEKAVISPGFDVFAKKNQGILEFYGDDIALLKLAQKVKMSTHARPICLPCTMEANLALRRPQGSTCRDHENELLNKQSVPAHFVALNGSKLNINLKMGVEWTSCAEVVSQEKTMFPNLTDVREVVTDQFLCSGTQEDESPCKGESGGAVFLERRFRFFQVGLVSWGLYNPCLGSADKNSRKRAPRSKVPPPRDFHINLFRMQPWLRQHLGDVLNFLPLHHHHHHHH

human C2 F270A = biological target: T4, human C2 F270A (human, UniProt P06681 21-752)
T4 sequence: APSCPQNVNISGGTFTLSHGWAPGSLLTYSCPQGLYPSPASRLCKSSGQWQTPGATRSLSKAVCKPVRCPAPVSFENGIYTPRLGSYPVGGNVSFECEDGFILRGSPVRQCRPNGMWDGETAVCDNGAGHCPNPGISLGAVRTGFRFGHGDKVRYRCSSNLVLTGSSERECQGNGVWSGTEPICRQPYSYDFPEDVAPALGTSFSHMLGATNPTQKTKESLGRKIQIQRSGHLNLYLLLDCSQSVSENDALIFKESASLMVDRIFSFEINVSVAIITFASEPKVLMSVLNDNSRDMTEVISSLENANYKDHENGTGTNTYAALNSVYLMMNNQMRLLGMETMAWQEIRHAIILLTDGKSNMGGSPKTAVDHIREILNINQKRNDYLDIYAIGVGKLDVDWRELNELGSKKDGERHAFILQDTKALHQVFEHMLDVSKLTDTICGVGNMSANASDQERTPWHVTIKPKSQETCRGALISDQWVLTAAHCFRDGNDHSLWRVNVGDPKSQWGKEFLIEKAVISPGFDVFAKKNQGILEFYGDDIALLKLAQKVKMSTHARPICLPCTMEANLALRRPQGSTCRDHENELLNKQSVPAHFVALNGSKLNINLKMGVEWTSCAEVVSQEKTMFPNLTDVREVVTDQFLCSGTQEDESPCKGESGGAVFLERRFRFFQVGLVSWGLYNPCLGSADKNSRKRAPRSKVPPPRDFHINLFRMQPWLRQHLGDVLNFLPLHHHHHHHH

B1: RF16-226 (antibody, human IgG4 S228P, lambda)
heavy: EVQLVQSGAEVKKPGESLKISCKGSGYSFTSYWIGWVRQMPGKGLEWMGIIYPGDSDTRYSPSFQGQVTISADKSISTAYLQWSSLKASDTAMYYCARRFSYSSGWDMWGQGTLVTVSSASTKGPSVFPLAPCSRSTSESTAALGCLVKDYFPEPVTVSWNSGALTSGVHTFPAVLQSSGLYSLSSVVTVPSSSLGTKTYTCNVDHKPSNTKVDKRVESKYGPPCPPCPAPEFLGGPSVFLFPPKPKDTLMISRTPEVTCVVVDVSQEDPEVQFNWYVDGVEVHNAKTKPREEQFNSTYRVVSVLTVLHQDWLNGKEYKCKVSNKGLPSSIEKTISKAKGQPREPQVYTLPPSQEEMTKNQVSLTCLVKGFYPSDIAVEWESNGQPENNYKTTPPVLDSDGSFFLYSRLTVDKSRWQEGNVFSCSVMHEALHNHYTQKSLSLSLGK
light: SYELTQPPSVSVSPGQTARITCSGDALTSKYVAWYQQKSGLAPLLVIYEDTRRPSGIPAKFSGSSSGSVATLTISGAHGDDEADYYCYSTDASGHQRVFGGGTKLTVLSQPKAAPSVTLFPPSSEELQANKATLVCLISDFYPGAVTVAWKADGSPVKAGVETTKPSKQSNNKYAASSYLSLTPEQWKSHRSYSCQVTHEGSTVEKTVAPTECS
notes: pH-dependent anti-C2 antibody from a phage display library; also called WT
In the case of B1, the Fold diff (human C2 D431A) is reported as 4 fold, the Fold diff (human C2 L453A) is reported as 3 fold and the Fold diff (human C2 N471A) is reported as 1 fold. For the same binder, the Fold diff (human C2 F270A) was 10 fold.
